Experimental data taken from publication PMC2600743 (The Journal of Cell Biology, 2008).

What was measured:
[1] = target: MBD-ank (Table II; ankB or ankG not said) membrane-binding domain; assay: SPR, GST-Nav1.2 captured on chip; details: reference: wild type, CK2-treated; sites S1124,S1126
[2] = target: ankyrin B (MBD-ankB) membrane-binding domain, 1–957 (UniProt Q01484); assay: SPR, GST-Nav1.2 captured on chip; details: reference: untreated immobilized fragment; sites S1112,S1123,S1124,S1126
[3] = target: ankyrin G (MBD-ankG) membrane-binding domain, 1–981 (UniProt O70511); assay: SPR, GST-Nav1.2 captured on chip; details: reference: untreated immobilized fragment; sites S1112,S1123,S1124,S1126
[4] = target: T1, MBD-ankB (membrane-binding domain of human 220-kD ankyrin B, amino acids 1–957) (human, UniProt Q01484-2 1-957); assay: SPR
T1 sequence (looked up): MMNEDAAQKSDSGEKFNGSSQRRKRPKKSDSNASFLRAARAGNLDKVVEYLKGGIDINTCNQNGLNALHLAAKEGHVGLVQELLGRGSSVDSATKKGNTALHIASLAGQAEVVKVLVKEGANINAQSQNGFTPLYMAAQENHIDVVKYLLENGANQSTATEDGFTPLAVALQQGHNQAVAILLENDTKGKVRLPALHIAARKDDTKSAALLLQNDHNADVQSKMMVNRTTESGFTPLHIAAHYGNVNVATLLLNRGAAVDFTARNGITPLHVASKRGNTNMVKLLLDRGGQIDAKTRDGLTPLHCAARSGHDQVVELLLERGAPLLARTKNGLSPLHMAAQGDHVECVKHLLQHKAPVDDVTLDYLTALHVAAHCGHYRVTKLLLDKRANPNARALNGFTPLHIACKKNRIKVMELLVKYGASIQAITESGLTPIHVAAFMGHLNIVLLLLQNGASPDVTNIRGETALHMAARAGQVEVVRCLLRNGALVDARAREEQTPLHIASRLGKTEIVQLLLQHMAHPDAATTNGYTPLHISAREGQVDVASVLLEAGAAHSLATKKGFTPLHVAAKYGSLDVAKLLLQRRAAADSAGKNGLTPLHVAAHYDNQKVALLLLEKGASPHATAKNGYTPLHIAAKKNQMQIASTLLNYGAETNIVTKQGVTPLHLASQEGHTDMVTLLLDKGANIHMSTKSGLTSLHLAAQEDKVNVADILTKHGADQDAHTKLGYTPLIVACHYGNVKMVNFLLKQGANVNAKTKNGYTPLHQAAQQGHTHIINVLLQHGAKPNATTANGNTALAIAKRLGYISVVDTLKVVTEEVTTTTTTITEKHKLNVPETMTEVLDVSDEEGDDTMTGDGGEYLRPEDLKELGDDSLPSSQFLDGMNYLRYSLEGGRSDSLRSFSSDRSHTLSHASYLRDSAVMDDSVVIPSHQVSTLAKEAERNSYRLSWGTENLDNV

[5] = target: T2, MBD-ankG (membrane-binding domain of rat 270-kD ankyrin G, amino acids 1–981) (rat, UniProt O70511 1-981); assay: SPR
T2 sequence (looked up): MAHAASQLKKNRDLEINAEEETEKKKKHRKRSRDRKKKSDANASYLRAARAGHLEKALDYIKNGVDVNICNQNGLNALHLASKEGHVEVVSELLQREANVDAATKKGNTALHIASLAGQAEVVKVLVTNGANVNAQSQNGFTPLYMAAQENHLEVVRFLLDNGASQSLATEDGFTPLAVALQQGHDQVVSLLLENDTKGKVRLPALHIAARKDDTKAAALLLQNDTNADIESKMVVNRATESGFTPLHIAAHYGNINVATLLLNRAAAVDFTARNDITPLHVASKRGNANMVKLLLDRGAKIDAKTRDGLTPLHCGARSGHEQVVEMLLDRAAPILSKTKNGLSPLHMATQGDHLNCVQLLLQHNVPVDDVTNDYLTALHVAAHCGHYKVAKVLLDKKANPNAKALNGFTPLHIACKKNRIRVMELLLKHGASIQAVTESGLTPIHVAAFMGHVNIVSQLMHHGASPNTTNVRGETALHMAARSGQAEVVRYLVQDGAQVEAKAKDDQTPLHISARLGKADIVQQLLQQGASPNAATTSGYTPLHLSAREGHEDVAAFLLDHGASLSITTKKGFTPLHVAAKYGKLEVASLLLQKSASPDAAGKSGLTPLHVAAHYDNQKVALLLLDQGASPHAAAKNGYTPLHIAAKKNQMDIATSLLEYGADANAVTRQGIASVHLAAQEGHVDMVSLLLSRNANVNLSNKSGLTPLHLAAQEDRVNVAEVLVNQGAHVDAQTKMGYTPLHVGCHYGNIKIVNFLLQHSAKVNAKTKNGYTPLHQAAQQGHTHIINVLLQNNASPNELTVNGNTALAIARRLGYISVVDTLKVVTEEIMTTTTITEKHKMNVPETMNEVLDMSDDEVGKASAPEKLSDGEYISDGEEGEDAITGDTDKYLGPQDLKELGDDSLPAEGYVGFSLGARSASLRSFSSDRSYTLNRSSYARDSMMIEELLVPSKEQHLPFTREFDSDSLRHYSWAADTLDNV

Nav1.2 1,080–1,203 (from UniProt P04775) S1124-26A, CK2-treated
KD [1]: weaker; reference 1.2 10−9

Nav1.2 1,080–1,203 (from UniProt P04775) phosphorylated on chip with CK2
KD [2]: stronger; reference 1.2 ± 0.4 × 10−6
KD [3]: stronger; reference 1.7 ± 0.5 × 10−6

Nav1.2 989–1,133 (from UniProt P04775) phosphorylated on chip with CK2
KD [2]: stronger; reference 1.3 ± 0.2 × 10−6

B1: GST-Nav1.2 989–1,133 (domain or fragment, UniProt P04775 989-1133, looked up)
chain: DNLAATDDDNEMNNLQIAVGRMQKGIDFVKRKIREFIQKAFVRKQKALDEIKPLEDLNNKKDSCISNHTTIEIGKDLNYLKDGNGTTSGIGSSVEKYVVDESDYMSFINNPSLTVTVPIALGESDFENLNTEEFSSESDMEESKE
Kd [4]: 1300 nM

B2: GST-Nav1.2 1,080–1,203 (domain or fragment, UniProt P04775 1080-1203, looked up)
chain: SSVEKYVVDESDYMSFINNPSLTVTVPIALGESDFENLNTEEFSSESDMEESKEKLNATSSSEGSTVDIGAPAEGEQPEAEPEESLEPEACFTEDCVRKFKCCQISIEEGKGKLWWNLRKTCYK
Kd [5]: 1700 nM
Kd [4]: 1200 nM
